# B1: DUX4-s: short splice form of DUX4 (SEQ ID NO:112), keeps the double-homeobox domains, lacks the C-terminal activation domain (protein, listed as Homo sapiens)
# chain: MALPTPSDSTLPAEARGRGRRRRLVWTPSQSEALRACFERNPYPGIATRERLAQAIGIPEPRVQIWFQNERSRQLRQHRRESRPWPGRRGPPEGRRKRTAVTGSQTALLLRAFEKDRFPGIAAREELARETGLPESRIQIWFQNRRARHPGQGGRAPAQV
# System: control human primary myoblasts
# Test: Expression microarray of primary myoblasts transduced with lentivirus carrying DUX4-fl, DUX4-s or GFP
# Method: Primary human myoblasts were collected and cultured as previously described (Snider et al., 2010). Primary myoblasts were maintained at or below 70% confluency for proliferation. For differentiation, cells were allowed to reach 95-100% confluency in growth medium. Once confluency was reached, the cells were changed to differentiation medium (F10 media supplemented with 1% horse serum, 10 μg/mL insulin, and 10 μg/mL transferrin, penicillin/streptomycin) and maintained for 4 days. Human RD cells were grown in DMEM in 10% bovine calf serum (Hyclone) and penicillin/streptomycin. The primary myoblasts were transduced with lentivirus carrying DUX-fl, DUX4- or GFP (MOI=15).
# Expression microarrays were performed on the transduced cells at 24 hours after transduction as follows. […] Samples were analyzed by Illumina Human Whole Genome microarrays. Probe intensities were corrected, normalized, and summarized by the Lumi package of Bioconductor (Du et al., 2008). Differentially expressed genes were identified by the LIMMA package of Bioconductor (Wettenhall and Smyth, 2004). Gene set enrichment analysis (GSEA) was performed using the Bioconductor GOstats package (Falcon and Gentleman, 2007).
# [1] = 2-fold change and FDR<0.01 vs lenti-GFP, 24 hours after transduction
# [2] = 3-fold criteria (>1.584 log2-fold change and FDR<0.01)
molecule,measurement,setting,value
B1,number of genes with decreased expression,[1],45 genes
same,number of genes with increased expression,[1],159 genes
same,number of genes decreased,[2],one
same,number of genes increased,[2],37 genes
same,BQ437417 (no symbol given) expression fc,"Refseq BQ437417, cultured human skeletal muscle",−0.126
same,fc of ACVRL1 (expression array),Refseq NM_000020.1,0.06199
same,fc of C3 (expression array),Refseq NM_000064.1,0.2479
same,CA2 expression fc,Refseq NM_000067.1,0.1046
same,fc of COL1A1 (expression array),Refseq NM_000088.3,−1.257
same,CST3 fc,Refseq NM_000099.2,0.1574
same,ENG fc,Refseq NM_000118.1,0.4927
same,fc of GAMT (expression array),Refseq NM_000156.4,−0.3529
same,GBE1 fc,Refseq NM_000158.2,0.4818
same,fc of IDS (expression array),Refseq NM_000202.3,0.6655
same,KCNA1 expression fc,Refseq NM_000217.2,0.02842
same,SGCG expression fc,Refseq NM_000231.1,0.125
same,NP expression fc,Refseq NM_000270.1,0.2279
same,fc of PTEN (expression array),Refseq NM_000314.4,−0.3029
same,SLC3A1 expression fc,Refseq NM_000341.2,0.003792
same,SOX9 expression fc,Refseq NM_000346.2,−0.3086
same,fc of PAFAH1B1 (expression array),Refseq NM_000430.2,−1.237
same,HBA2 expression fc,Refseq NM_000517.3,0.09333
same,fc of HBB (expression array),Refseq NM_000518.4,1.196
same,HBA1 expression fc,Refseq NM_000558.3,0.08066
same,IL8 expression fc,"Refseq NM_000584.2, cultured human skeletal muscle",1.186
same,fc of IL15 (expression array),Refseq NM_000585.2,−0.1029
same,TAP1 expression fc,"Refseq NM_000593.5, cultured human skeletal muscle",0.6996
same,fc of IL6 (expression array),Refseq NM_000600.1,1.198
same,IL10RB fc,Refseq NM_000628.3,−0.05056
same,fc of ALDH2 (expression array),Refseq NM_000690.2,0.2053
same,fc of ANXA1 (expression array),Refseq NM_000700.1,0.08537
same,fc of CYP2J2 (expression array),Refseq NM_000775.2,1.127
same,fc of GAS6 (expression array),Refseq NM_000820.1,−0.3187
same,fc of MME (expression array),Refseq NM_000902.3,−0.184
same,P4HB fc,Refseq NM_000918.3,−0.1927
same,PTGFR fc,Refseq NM_000959.3,0.1496
same,TOP2A fc,Refseq NM_001067.2,−0.6065
same,TYMS fc,Refseq NM_001071.1,−0.09199
same,VCAM1 expression fc,"Refseq NM_001078.2, cultured human skeletal muscle",0.6349
same,ALOX15B fc,Refseq NM_001141.2,0.4518
same,ANPEP expression fc,"Refseq NM_001150.1, cultured human skeletal muscle",0.3635
same,ART3 expression fc,Refseq NM_001179.3,0.09073
same,CA12 expression fc,"Refseq NM_001218.3, cultured human skeletal muscle",0.954
same,fc of CASP4 (expression array),Refseq NM_001225.3,0.6908
same,CD68 fc,Refseq NM_001251.1,1.175
same,CLIC1 fc,Refseq NM_001288.4,0.3089
same,CXADR expression fc,Refseq NM_001338.3,−0.07005
same,DPYSL2 fc,Refseq NM_001386.4,0.2285
same,EMP3 fc,Refseq NM_001425.1,−0.2096
same,FLT3LG fc,Refseq NM_001459.2,0.3873
same,CXCL1 expression fc,"Refseq NM_001511.1, cultured human skeletal muscle",0.2028
same,fc of HAS1 (expression array),Refseq NM_001523.1,0.217
same,PRMT2 fc,Refseq NM_001535.2,0.07412
same,NDST1 fc,Refseq NM_001543.3,−0.6912
same,IFIT2 expression fc,"Refseq NM_001547.4, cultured human skeletal muscle",2.07
same,IFIT1 expression fc,"Refseq NM_001548.3, cultured human skeletal muscle",0.7206
same,IFIT3 expression fc,"Refseq NM_001549.2, cultured human skeletal muscle",1.806
same,IFRD1 expression fc,Refseq NM_001550.2,−0.192
same,IGFBP4 expression fc,"Refseq NM_001552.2, cultured human skeletal muscle",0.4048
same,fc of CXCL10 (expression array),Refseq NM_001565.2,3.235
same,AARS fc,Refseq NM_001605.2,0.2776
same,ACP2 fc,Refseq NM_001610.1,0.2225
same,TRIM23 expression fc,Refseq NM_001656.3,0.6303
same,ARSD fc,Refseq NM_001669.2,−0.2052
same,fc of AUH (expression array),Refseq NM_001698.1,0.1604
same,CFB expression fc,"Refseq NM_001710.4, cultured human skeletal muscle",0.6337
same,C1R expression fc,"Refseq NM_001733.4, cultured human skeletal muscle",0.4933
same,CAV1 fc,Refseq NM_001753.3,−0.1911
same,fc of RUNX1 (expression array),Refseq NM_001754.3,−1.047
same,fc of CCND2 (expression array),Refseq NM_001759.2,−0.5282
same,CD9 expression fc,Refseq NM_001769.2,−0.004788
same,CDH11 fc,Refseq NM_001797.2,0.2419
same,HBEGF expression fc,Refseq NM_001945.1,−0.07673
same,ECGF1 expression fc,"Refseq NM_001953.2, cultured human skeletal muscle",0.6156
same,EGR1 expression fc,Refseq NM_001964.2,0.02651
same,ETV6 fc,Refseq NM_001987.4,−0.05533
same,EYA3 expression fc,Refseq NM_001990.2,−0.01672
same,fc of ACSL1 (expression array),Refseq NM_001995.2,0.147
same,FES fc,Refseq NM_002005.2,−0.3314
same,FTH1 expression fc,"Refseq NM_002032.2, cultured human skeletal muscle",−0.4183
same,GTF2F1 expression fc,Refseq NM_002096.1,0.29
same,HLA-A fc,Refseq NM_002116.5,0.5577
same,HMOX1 expression fc,"Refseq NM_002133.1, cultured human skeletal muscle",0.9838
same,HOXB2 expression fc,Refseq NM_002145.3,−0.04069
same,HSPA6 expression fc,Refseq NM_002155.3,0.128
same,ID2 expression fc,Refseq NM_002166.4,0.2756
same,fc of IFNB1 (expression array),Refseq NM_002176.2,1.044
same,INSM1 expression fc,Refseq NM_002196.2,0.2306
same,IRF1 expression fc,"Refseq NM_002198.1, cultured human skeletal muscle",0.3563
same,ISG20 expression fc,"Refseq NM_002201.4, cultured human skeletal muscle",2.357
same,fc of ITGA3 (expression array),Refseq NM_002204.1,0.1268
same,fc of JUNB (expression array),Refseq NM_002229.2,0.5152
same,JUP expression fc,Refseq NM_002230.1,−0.1057
same,KPNA2 expression fc,Refseq NM_002266.2,−0.5075
same,fc of LAMC1 (expression array),Refseq NM_002293.2,−1.061
same,fc of LSS (expression array),Refseq NM_002340.3,−0.007301
same,LTBR fc,Refseq NM_002342.1,0.4061
same,LUM fc,Refseq NM_002345.3,0.3869
same,LY6E expression fc,"Refseq NM_002346.1, cultured human skeletal muscle",0.2484
same,fc of MDM2 (expression array),Refseq NM_002392.2,1.078
same,MX1 expression fc,"Refseq NM_002462.2, cultured human skeletal muscle",0.2624
same,MX2 expression fc,"Refseq NM_002463.1, cultured human skeletal muscle",0.9576
same,fc of MYF6 (expression array),Refseq NM_002469.1,−0.0236
same,MYOD1 fc,Refseq NM_002478.4,−0.462
same,NFYA expression fc,Refseq NM_002505.3,0.9153
same,OAS2 expression fc,"Refseq NM_002535.2, cultured human skeletal muscle",0.4553
same,ODC1 expression fc,Refseq NM_002539.1,−0.2008
same,PDE4B fc,Refseq NM_002600.3,0.6757
same,PFKP fc,Refseq NM_002627.3,0.7759
same,PIM1 expression fc,Refseq NM_002648.2,−0.6756
same,EXOSC10 expression fc,Refseq NM_002685.2,0.2771
same,PNN expression fc,Refseq NM_002687.3,0.04413
same,PRKD1 fc,Refseq NM_002742.2,−0.6085
same,PSMB9 expression fc,"Refseq NM_002800.4, cultured human skeletal muscle",0.9451
same,PTX3 expression fc,"Refseq NM_002852.2, cultured human skeletal muscle",0.9442
same,PYGB expression fc,"Refseq NM_002862.3, cultured human skeletal muscle",−0.118
same,fc of RAB13 (expression array),Refseq NM_002870.2,0.3496
same,fc of RBMS1 (expression array),Refseq NM_002897.3,1.104
same,fc of RBMS2 (expression array),Refseq NM_002898.2,1.448
same,RXRA fc,Refseq NM_002957.3,−0.3202
same,CCL2 expression fc,"Refseq NM_002982.3, cultured human skeletal muscle",0.4355
same,CCL5 expression fc,"Refseq NM_002985.2, cultured human skeletal muscle",1.889
same,CXCL6 expression fc,"Refseq NM_002993.2, cultured human skeletal muscle",0.1728
same,CXCL5 expression fc,"Refseq NM_002994.3, cultured human skeletal muscle",0.824
same,SLC2A5 expression fc,"Refseq NM_003039.1, cultured human skeletal muscle",0.8141
same,SLC22A4 fc,Refseq NM_003059.2,0.3817
same,SNAI2 expression fc,"Refseq NM_003068.3, cultured human skeletal muscle",0.2027
same,fc of SMARCD3 (expression array),Refseq NM_003078.3,−0.3421
same,SNRNP70 expression fc,Refseq NM_003089.4,0.01776
same,SOX4 expression fc,Refseq NM_003107.2,−0.2174
same,SPG7 fc,Refseq NM_003119.2,−0.2796
same,SRP19 expression fc,Refseq NM_003135.1,0.227
same,fc of STRN (expression array),Refseq NM_003162.2,1.092
same,THBS1 fc,Refseq NM_003246.2,−0.5659
same,UBA7 expression fc,"Refseq NM_003335.2, cultured human skeletal muscle",0.5729
same,fc of UGCG (expression array),Refseq NM_003358.1,1.447
same,WEE1 fc,Refseq NM_003390.2,0.3325
same,WNT5A fc,Refseq NM_003392.3,−0.3993

# From patent US20140242093A1, “METHODS AND COMPOSITIONS FOR MODULATING THE INNATE IMMUNE RESPONSE AND/OR MYOGENESIS IN A MAMMALIAN SUBJECT” (FRED HUTCHINSON CANCER RESEARCH CENTER, priority 2011, published 2014)
